Assay [1] has as its target HLA-A*02:03. In words: IEDB peptide-MHC binding, cellular MHC/competitive/fluorescence; ≥ and ≤ were set here for values at or beyond the usual limits of such assays.
The target of assay [2] is HLA-A*68:02. Described as above.
Assay [3] deals with HLA-A*02:06. Described as above.
Assay [4] deals with HLA-A*02:02. Briefly: IEDB peptide-MHC binding, purified MHC/competitive/radioactivity; ≥ and ≤ were set here for values at or beyond the usual limits of such assays.
The target of assay [5] is HLA-A*02:01. The description is as above.
Assay [6] deals with HLA-A*02:01. Briefly: IEDB peptide-MHC binding, cellular MHC/competitive/fluorescence; ≥ and ≤ were set here for values at or beyond the usual limits of such assays.
Assay [7] addresses HLA-A*68:02. In words: IEDB peptide-MHC binding, purified MHC/competitive/radioactivity; ≥ and ≤ were set here for values at or beyond the usual limits of such assays.
Assay [8] deals with HLA-A*02:06. Described as above.
Setting [9] is: source organism: Vaccinia virus WR.
[10] abbreviates: source organism: Influenza A virus.
The mark [11] stands for this setting: source organism: Mammarenavirus machupoense.
Where [12] appears, read: source organism: Mammarenavirus guanaritoense.

pIC50: −log10 of the molar value.

Broadly, the pIC50 is the negative decadic logarithm of the IC50, by convention in mol/L.

Take ALWDSNFFT: the pIC50 is 4.55 in assay [1] (setting [9]); 5.13 in assay [2] (setting [9]); 4.64 in assay [3] (setting [9]); 5.98 in assay [4] (setting [9]); 5.43 in assay [5] (setting [9]).

For the sequence CTSEIQNVT, the pIC50 in assay [1] (setting [9]) is 5.29; in assay [3] (setting [9]), 4.99; in assay [6] (setting [9]), 4.87; in assay [7] (setting [9]), 7.05; in assay [4] (setting [9]), 6.73.

Regarding DAEFVMCLEA, the negative logarithm of the IC50 (pIC50) in assay [1] (setting [9]) was 5.14; in assay [3] (setting [9]), 4.90; in assay [6] (setting [9]), 5.04; in assay [7] (setting [9]), 5.80; in assay [4] (setting [9]) it was 5.62.

For DIYDAVRAFL, the negative logarithm of the IC50 (pIC50) in assay [1] (setting [9]) is 5.16; in assay [3] (setting [9]), 4.92; in assay [6] (setting [9]), 5.27; in assay [7] (setting [9]), 6.59; in assay [4] (setting [9]), 5.83.

In the case of DTCLLAISA, the negative logarithm of the IC50 (pIC50) in assay [1] (setting [9]) is 5.19; in assay [3] (setting [9]) it was 4.60; in assay [6] (setting [9]), 5.17; in assay [7] (setting [9]) it was 6.50; in assay [4] (setting [9]), 5.36.

DTSNNIAEYI: the negative logarithm of the IC50 (pIC50) in assay [1] (setting [9]) is 5.04; in assay [3] (setting [9]) it was 4.34; in assay [6] (setting [9]) it was 5.20; in assay [7] (setting [9]), 7.33; in assay [4] (setting [9]), 5.48.

Consider DVQRTRCKYV, for which the pIC50 is 5.19 in assay [1] (setting [9]); 5.02 in assay [3] (setting [9]); 5.84 in assay [7] (setting [9]); 5.97 in assay [4] (setting [9]); 5.80 in assay [5] (setting [9]).

On to EIARIENEM, for which the pIC50 in assay [1] (setting [9]) is 4.32; in assay [3] (setting [9]), ≤ 4.15; in assay [6] (setting [9]) it was ≤ 4.15; in assay [7] (setting [9]), 8.08; in assay [4] (setting [9]), 6.47.

In the case of ELPYVGDTSM, the pIC50 in assay [1] (setting [9]) was 4.85; in assay [3] (setting [9]), 4.53; in assay [6] (setting [9]), 4.87; in assay [7] (setting [9]), 6.04; in assay [4] (setting [9]), 5.38.

As for FNPMIVELA, the negative logarithm of the IC50 (pIC50) is 4.94 in assay [1] (setting [10]); 4.90 in assay [3] (setting [10]); 4.60 in assay [6] (setting [10]); 5.79 in assay [7] (setting [10]); 6.03 in assay [4] (setting [10]).

As to FVETLARSI, the negative-log IC50 (pIC50) in assay [1] (setting [10]) is 5.21; in assay [2] (setting [10]) it was 4.93; in assay [6] (setting [10]), 5.28; in assay [4] (setting [10]), 6.42; in assay [8] (setting [10]) it was 5.36.

Turning to GARVIWMDA, the pIC50 was 5.04 in assay [1] (setting [9]); 4.92 in assay [2] (setting [9]); 5.11 in assay [6] (setting [9]); 5.34 in assay [4] (setting [9]); 5.67 in assay [8] (setting [9]).

For the sequence GILHLILWIL, the pIC50 was 5.11 in assay [1] (setting [10]); 5.10 in assay [2] (setting [10]); 4.78 in assay [6] (setting [10]); 5.35 in assay [4] (setting [10]); 5.60 in assay [8] (setting [10]).

For IAGIILLIL, the negative logarithm of the IC50 (pIC50) in assay [1] (setting [9]) was 4.28; in assay [2] (setting [9]), 5.06; in assay [3] (setting [9]) it was ≤ 4.15; in assay [4] (setting [9]), 5.38; in assay [5] (setting [9]) it was 5.49.

For the sequence IASKINNNRI, the pIC50 in assay [1] (setting [9]) was 4.73; in assay [3] (setting [9]), 5.03; in assay [6] (setting [9]) it was 4.51; in assay [7] (setting [9]) it was 6.79; in assay [4] (setting [9]) it was 6.14.

For IISTDQDTM, the pIC50 in assay [1] (setting [9]) is 4.48; in assay [2] (setting [9]) it was 5.17; in assay [6] (setting [9]), 5.23; in assay [4] (setting [9]) it was 5.37; in assay [8] (setting [9]), 5.63.

As for IMLIIFWFSL, the pIC50 in assay [1] (source organism: SARS-CoV1) is 4.83; in assay [2] (source organism: SARS-CoV1), ≤ 4.15; in assay [3] (source organism: SARS-CoV1), 4.77; in assay [4] (source organism: SARS-CoV1), 5.81; in assay [5] (source organism: SARS-CoV1), 5.42.

As for KISVEKIKQT, the negative logarithm of the IC50 (pIC50) in assay [1] (setting [9]) is 5.05; in assay [2] (setting [9]), 4.95; in assay [3] (setting [9]), 4.68; in assay [4] (setting [9]), 5.91; in assay [5] (setting [9]), 5.33.

Take KSYFTNAAL: the pIC50 is 5.14 in assay [1] (setting [11]); 4.92 in assay [3] (setting [11]); 6.97 in assay [7] (setting [11]); 6.23 in assay [4] (setting [11]); 5.30 in assay [5] (setting [11]).

In the case of LCFWSAIFFT, the pIC50 in assay [1] (setting [12]) was 4.52; in assay [3] (setting [12]), 4.46; in assay [6] (setting [12]), 5.25; in assay [7] (setting [12]), 5.74; in assay [4] (setting [12]), 5.58.

LISILMIFI: the negative logarithm of the IC50 (pIC50) in assay [1] (setting [9]) was 5.30; in assay [2] (setting [9]), 4.98; in assay [3] (setting [9]), 5.15; in assay [4] (setting [9]) it was 5.63; in assay [5] (setting [9]), 5.89.

With LNIALVAVSL, the pIC50 in assay [1] (setting [11]) was 4.90; in assay [3] (setting [11]), 4.88; in assay [7] (setting [11]) it was 6.28; in assay [4] (setting [11]), 6.74; in assay [5] (setting [11]), 5.90.
